Data set [1] relates to Axl. Put plainly: FACS analysis of Axl expression in epi-allelic MDA-MB-231 cell series. In kind it is cell-based, human. The conditions noted are these: MDA-MB-231/GFP-Luc cells. From the text: All shRNAs were expressed from a modified human U6 promoter in the LTR of the retroviral vectors RRI-Red/L087 (Genbank: EU424173) used to transform MDA-MB-231 cells via retroviral infection. RRI-Red also expresses Puro2AmRed1 resulting in puromycin resistance and red fluorescence in successfully transformed cells. All Axl cDNA nucleotides are numbered as in Genbank: BC032229.
The MDA-MB-231 cells were trypsinated using standard procedures and washed in PBS-0.2% BSA before staining with anti-Axl (#MAB154, R&D Systems) at a final concentration of […] in PBS-0.2% BSA for 40 minutes at room temperature. Cells were washed twice in PBS-0.2% BSA) and incubated with secondary antibody (Goat anti-mouse APC (Allophyocyanin, crosslinked, Molecular Probes) at a final concentration of 0.2 mg/ml for 30 minutes at room temperature in the dark. Cells were washed twice with PBS-2% BSA and resuspended in […] PBS-0.2% BSA before analysis on a FacsCalibur Flow Cytometer (BD Biosciences). […]
The strong correlation of Axl expression in early breast carcinomas with poor survival indicates an important role for Axl in overall disease pathogenesis. As breast cancer-related mortality invariably results from complications of metastatic disease, we assessed whether Axl expression was required for malignant breast carcinoma cell invasiveness. […]
(In general: In flow cytometry, cells or beads pass a laser one at a time.)

Data set [2] deals with mouse Axl. Nature of the data set: Flow cytometry of mouse Axl surface expression in 4T1-GFP-Luc cells. The format is cell-based. The conditions noted are these: 4T1 cells, retroviral shRNA expression. Here is the method: The MDA-MB-231 cells were trypsinated using standard procedures and washed in PBS-0.2% BSA before staining with anti-Axl (#MAB154, R&D Systems) at a final concentration of […] in PBS-0.2% BSA for 40 minutes at room temperature. Cells were washed twice in PBS-0.2% BSA) and incubated with secondary antibody (Goat anti-mouse APC (Allophyocyanin, crosslinked, Molecular Probes) at a final concentration of 0.2 mg/ml for 30 minutes at room temperature in the dark. Cells were washed twice with PBS-2% BSA and resuspended in […] PBS-0.2% BSA before analysis on a FacsCalibur Flow Cytometer (BD Biosciences). Data analyses were carried out using the FlowJo software (Tree Star, Inc., Ashland, Oreg., USA).
In order to validate our results in a different metastatic model we transduced the highly metastatic mouse breast carcinoma 4T1 cell line with the CSI-construct and selected for GFPluciferase expression by FACS (4T1-GFP-Luc). […] A mismatched human Axl-targeting shRNA (shAxl279) had no effect on mouse Axl expression.

Data set [3] has as its system MDA-MB-231-D3H2LN cells. Nature of the data set: Mammary fat pad spontaneous metastasis model, bioluminescence imaging. The format is in vivo, NOD-SCID mice. As for the experimental part:
BLI was performed using a eXplore Optix (GE Healtcare) camera mounted in a specimen box. Imaging and quantification of signals was done using eXplore Optix software. For in vivo imaging, animals received via intraperitoneal injection (i.p) the substrate D-luciferin (Biosynth), 150 mg/kg in PBS (Phosphate Buffered Saline) and anesthetized with isoflurane. Mice were placed into warmed stage inside of camera box with continuous exposure to 1-2% isoflurane and imaged for different views depending on the tumor model. Region of interest were identified and were quantified as total photon/sec-1 using eXplore Optix software (GE Explore Optix). In vivo background bioluminescence was in the range of 2-3×10 photon counts. […]
Subline of human MDA-MB-231 cells (called MDA-MB 231 DH3L2N—Xenogen) which express GFP-Luc biomarker and different RNAs interference that regulate Axl expression were injected into mammary pad of mice. […] Tumor growth and metastasis spread was monitored every second week by bioluminescent imaging for up to 9 weeks. […]
In order to evaluate the requirement of Axl for breast cancer metastasis, we orthotopically injected MDA-MB-231-D3H2LN, a rapidly growing and highly metastatic in vivo MDA-231 isolate, into the mammary fat pad. Using whole body bioluminescent imaging we temporally monitored spontaneous metastasis development over a 9-week period. […]

Data set [4] has as its system MDA-MB-231/GFP-Luc cells. Put plainly: Tissue engineered tricellular tumor implants (MDA-MB-231, EC, SMC) in scaffolds. The format is in vivo, NOD-SCID mice. An excerpt:
1×10^6 MDA-MB 231 cells which express GFP-Luc biomarker and different RNAs interference that regulate Axl expression, were suspended in a 1:1 mixture of F-12 Kaighn's (Invitrogen) :Matrigel (BD Biosciences) and seeded in 6×6 mm Poly-lactic acid (PLLA) scaffolds.
Females NOD/SCID/B2mnull were anesthetized by exposure to 1-2% isoflurane (Isoba vet.-Schering-Plough A/S) during the implantation procedure and on subsequent imaging days. Two scaffolds were implanted subcutaneously (s.c) in each mouse according to Nor et al. Lab Invest.; 81 (4) 453; 2001 Scaffolds with cells that express Axl were implanted on the left side of each mouse while on the right side scaffolds with cells in which Axl was knockdown. After the surgical procedure, anesthetized mice were placed in Imaging System and imaged for both left and right sides 10-15 min after intraperitoneal injection of 150 mg/kg D-luciferin (Biosynth). Tumor development was monitored in vivo once a week by imaging for 4 weeks.
For tricellular implant MDA-MB-231 cells infected with shRNA vectors and GFP-Luc were mixed with Human dermal microvascular endothelial cells (HMVEC), and pulmonary artery smooth muscle cells (PASMC) in ratio of 1:2:2. Tumor growth was monitored weekly in vivo by imaging for 4 consecutive weeks.
To ascertain whether Axl influences the ability of breast cancer cells to attract and co-opt blood vessels, we developed a tri-cellular implant approach comprising MB-MDA-231 cells seeded together with primary human microvascular endothelial (HuMVEC) and vascular smooth muscle cells (vSMC) to create tumor vasculature. Implants of human EC-vSMC cells readily form perfused intrascaffold human microvasculature in NOD-SCID mice within a two-week period (Hegen et al., in preparation). […] The engineered human tumor vasculature is evenly distributed and perfused with intralumenal red blood cells. In contrast, Axl knockdown, blocked tumor formation, without affecting development of a perfused human microvasculature.

Data on two molecules can be found in patent publication US20180246080A1, “METHODS USING AXL AS A BIOMARKER OF EPITHELIAL-TO-MESENCHYMAL TRANSITION” (BERGEN TEKNOLOGIOVERFORING AS, priority 2009, published 2018).

B1: shAxl279: ineffective human Axl-targeting shRNA, SEQ ID NO: 3, used as control (nucleic acid, listed as Homo sapiens)
chain: GCTTCAGGCGATTTCCCCGGCGTTGGATCCCTGGTCGGATCCAACGCCGGGGAAATCGCCTGAAGC
Turning to B1, the “Axl knockdown efficacy (Axl-targeting shRNA)” value in data set [1] is “ineffective”. In addition, the “mouse Axl surface levels” value in data set [2] is on record as “had no effect”.

B2: shAxl2: human Axl-targeting shRNA, SEQ ID NO: 1, expressed from retroviral vector (nucleic acid, listed as Homo sapiens)
chain: GACATCCTCTTTCTCCTGCGAAGCCCATCTGGTCATGGGCTTCGCAGGAGAAAGAGGATGTC
For the molecule B2, the Overall survival result in data set [3] (orthotopically injected MDA-MB-231-D3H2LN/GFP-Luc cells, P=0.013 log-rank test vs control) is “significantly increased”. For the same molecule, in data set [3] (whole body bioluminescent imaging over 9 weeks), the Spontaneous metastasis entry is on record as “no metastases were detected”. For the same molecule, in data set [4] (excised tumors, 28 days), the Intrascaffold vessel diameter result is given as “unaffected” and the Microvascular density entry is on record as “slightly enhanced”. The “Tissue engineered tumor growth” value in data set [4] (tricellular implants, in vivo imaging) is recorded as “inhibited”.
